Reference: patent US8987414 (AILERON THERAPEUTICS, dated 2015)
One block for each binder: values may come before it. Bridge positions count the residues as written; N and C are the ends. Square brackets hold non-standard residues; d marks the D form. $4rn6 = Alpha-Me R-azide 1,4 triazole (6 carbon), forms a triazole cross-link with a second residue in the same molecule; $4a5 = Alpha-Me alkyne 1,4 triazole (5 carbon), forms a triazole cross-link with a second residue in the same molecule; $5rn6 = Alpha-Me R-azide 1,5 triazole (6 carbon); $5a5 = Alpha-Me alkyne 1,5 triazole (5 carbon); Cba = N[C@@H](CC1CCC1)C(=O)O

Legend:
[1] = biological target: T1, MDM2 (In-house, 41 kD) (UniProt Q00987 1-138, limits assumed); assay: competitive fluorescence polarization, Ki (MDM2)
T1 construct: Construct used in the FP assays is described only as in-house, 41 kD; also called HDM2
T1 sequence (Q00987 1-138 limits assumed): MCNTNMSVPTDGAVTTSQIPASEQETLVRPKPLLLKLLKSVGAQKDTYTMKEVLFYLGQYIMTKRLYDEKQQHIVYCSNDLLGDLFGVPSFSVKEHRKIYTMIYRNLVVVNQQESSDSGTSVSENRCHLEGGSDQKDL

[2] = biological target: T2, MDMX (In-house, 40 kD) (UniProt O15151 1-134, limits assumed); assay: competitive fluorescence polarization, Ki (MDMX)
T2 construct: Construct used in the FP assays is described only as in-house, 40 kD; also called MDM4
T2 sequence (looked up): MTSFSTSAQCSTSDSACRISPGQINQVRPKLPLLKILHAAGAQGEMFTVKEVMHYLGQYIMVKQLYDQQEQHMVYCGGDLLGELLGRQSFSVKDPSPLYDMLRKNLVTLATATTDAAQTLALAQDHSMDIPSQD
Method: (§1) The assay is performed according to the following general protocol: 1. Dilute MDMX (In-house, 40 kD) into FP buffer (High salt buffer-200 mM Nacl, 5 mM CHAPS, pH 7.5.) to make 300 nM (2×) working stock solution. 2. Add 20 µl of 300 nM (2×) of protein stock solution into each well of 96-well black HE microplate (Molecular Devices) 3. […] Then, dilute from 100 µM to 10 µM with water (dilution 1:10) and then dilute with FP buffer from 10 µM to 40 nM (dilution 1:250). This is the working solution which will be a 10 nM concentration in well (dilution 1:4). […] 4. Make unlabeled peptide dose plate with FP buffer starting with 5 µM (final) of peptide and making 5 fold serial dilutions for 6 points using following dilution scheme. 5. Dilute 10 mM (in 100% DMSO) with DMSO to 5 mM (dilution 1:2). Then, dilute from 5 mM to 500 µM with H_2O (dilution 1:10) and then dilute with FP buffer from 500 µM to 20 µM (dilution 1:25). Making 5 fold serial dilutions from 20 µM (4×) for 6 points. 6. Transfer 10 µl of serial diluted unlabeled peptides to each well which is filled with 20 µl of 300 nM of protein. 7.

[3] = biological target: T1, MDM2 (In-house, 41 kD); assay: competitive fluorescence polarization vs FAM-labeled linear peptide; grade of Ki (MDM2); scale in paragraph 664: ++ = >100 and <=1000 nM
[4] = biological target: T2, MDMX (In-house, 40 kD); assay: competitive fluorescence polarization vs FAM-labeled linear peptide; grade of Ki (MDMX); scale in paragraph 664: ++++ = <=10 nM
Method: as §1

[5] = biological target: T2, MDMX (In-house, 40 kD); assay: competitive fluorescence polarization vs FAM-labeled linear peptide; grade of IC50 (MDMX); scale in paragraph 664: +++ = >10 and <=100 nM
Method: as §1

[6] = biological target: T1, MDM2 (In-house, 41 kD); assay: competitive fluorescence polarization vs FAM-labeled linear peptide; grade of IC50 (MDM2); scale in paragraph 664: +++ = >10 and <=100 nM
[7] = biological target: T1, MDM2 (In-house, 41 kD); assay: competitive fluorescence polarization vs FAM-labeled linear peptide; grade of Ki (MDM2); scale in paragraph 664: ++++ = <=10 nM
[8] = biological target: T2, MDMX (In-house, 40 kD); assay: competitive fluorescence polarization vs FAM-labeled linear peptide; grade of Ki (MDMX); scale in paragraph 664: +++ = >10 and <=100 nM
Method: as §1

[9] = biological target: T2, MDMX (In-house, 40 kD); assay: competitive fluorescence polarization vs FAM-labeled linear peptide; grade of IC50 (MDMX); scale in paragraph 664: ++++ = <=10 nM
Method: as §1

[10] = biological target: T1, MDM2 (In-house, 41 kD); assay: competitive fluorescence polarization vs FAM-labeled linear peptide; grade of IC50 (MDM2); scale in paragraph 664: ++++ = <=10 nM

B1: SP-459 (peptide)
peptide: Ac-LTA[$5rn6]EYWAQ[Cba][$5a5]SAA-NH2
modifications: triazole 4-11
notes: also called Ac-LTA$5rn6EYWAQCba$5a5SAA-NH2
- Ki [1]: > 1000 nM
- Ki [2]: > 1000 nM

B3: SP-450 (peptide)
peptide: Ac-LTF[$4rn6]AYWAQL[$4a5]AAAAA[dA]-NH2
modifications: triazole 4-11
notes: Triazole-crosslinked macrocycle of Formula I; also called Ac-LTF$4rn6AYWAQL$4a5AAAAAa-NH2
- Ki [3]: 100 to 1000 nM

B6: SP-449 (peptide)
peptide: LTFXAYWAQLXAAXA
modifications: N-terminal acetyl (Ac); position 4 = $4rn6 (alpha-Me R-azide 1,4 triazole, 6 carbon) crosslinked to position 11 = $4a5 (alpha-Me alkyne 1,4 triazole, 5 carbon); position 14 = Nle (norleucine); C-terminal amide (NH2)
notes: Triazole-crosslinked macrocycle of Formula I; also called Ac-LTF$4rn6AYWAQL$4a5AANleA-NH2
- IC50 [9]: ≤ 10 nM
- Ki [4]: ≤ 10 nM
- IC50 [10]: ≤ 10 nM
- Ki [7]: ≤ 10 nM

More lines, now with the values ahead:

- Ki [1]: > 1000 nM
- Ki [2]: > 1000 nM
B2: SP-460 (peptide)
peptide: Ac-LTA[$4rn6]EYWAQ[Cba][$4a5]SAA-NH2
modifications: triazole 4-11
notes: also called Ac-LTA$4rn6EYWAQCba$4a5SAA-NH2

- Ki [4]: ≤ 10 nM
- IC50 [5]: 10 to 100 nM
- IC50 [6]: 10 to 100 nM
- Ki [7]: ≤ 10 nM
B4: SP-916 (peptide)
peptide: LTFCAYWAQLCAAXA
modifications: N-terminal acetyl (Ac); position 4 = %cs7 (alpha-methyl-D-cysteine) connected by an i to i+7 seven-methylene bis-thioether crosslinker to position 11 = %c7 (alpha-methyl-L-cysteine); position 14 = Nle (norleucine); C-terminal amide (NH2)
notes: Thioether-crosslinked macrocycle of Formula II; also called Ac-LTF%cs7AYWAQL%c7AANleA-NH2

- Ki [8]: 10 to 100 nM
- IC50 [5]: 10 to 100 nM
- IC50 [6]: 10 to 100 nM
- Ki [7]: ≤ 10 nM
B5: SP-917 (peptide)
peptide: LTFCAYWAQLCAAAAAA
modifications: N-terminal acetyl (Ac); position 4 = %cs7 (alpha-methyl-D-cysteine) connected by an i to i+7 seven-methylene bis-thioether crosslinker to position 11 = %c7 (alpha-methyl-L-cysteine); position 17 = D-alanine (a); C-terminal amide (NH2)
notes: Thioether-crosslinked macrocycle of Formula II; also called Ac-LTF%cs7AYWAQL%c7AAAAAa-NH2
